T1: human CD22-ECD-His protein (human, UniProt P20273 20-687)
T1 construct: Recombinant, from HEK293E cells; also called hCD22-ECD-His; human CD22-His protein; not shown: His tag
T1 sequence: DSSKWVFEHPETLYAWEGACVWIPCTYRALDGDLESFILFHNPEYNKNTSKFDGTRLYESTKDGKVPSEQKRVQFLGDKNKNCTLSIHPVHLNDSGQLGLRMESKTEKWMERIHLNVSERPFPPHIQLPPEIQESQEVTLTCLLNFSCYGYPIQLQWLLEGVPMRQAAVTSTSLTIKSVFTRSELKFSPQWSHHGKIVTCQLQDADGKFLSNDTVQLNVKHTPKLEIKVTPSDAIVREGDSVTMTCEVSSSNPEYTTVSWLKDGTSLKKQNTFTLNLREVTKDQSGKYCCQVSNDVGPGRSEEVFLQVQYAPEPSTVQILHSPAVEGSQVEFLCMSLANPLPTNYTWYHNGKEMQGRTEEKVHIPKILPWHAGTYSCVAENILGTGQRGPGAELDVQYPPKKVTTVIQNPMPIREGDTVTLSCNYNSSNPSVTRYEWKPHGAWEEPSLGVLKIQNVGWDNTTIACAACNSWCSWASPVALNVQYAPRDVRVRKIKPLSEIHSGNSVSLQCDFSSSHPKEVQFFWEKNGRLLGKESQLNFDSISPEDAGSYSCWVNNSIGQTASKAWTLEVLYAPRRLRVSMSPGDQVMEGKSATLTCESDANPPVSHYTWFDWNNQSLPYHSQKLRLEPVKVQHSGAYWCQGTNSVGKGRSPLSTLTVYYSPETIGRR

T2: human CD22 domain5-7-His (human, UniProt P20273 414-687)
T2 construct: also called hCD22 domain5-7-His; not shown: His tag
T2 sequence: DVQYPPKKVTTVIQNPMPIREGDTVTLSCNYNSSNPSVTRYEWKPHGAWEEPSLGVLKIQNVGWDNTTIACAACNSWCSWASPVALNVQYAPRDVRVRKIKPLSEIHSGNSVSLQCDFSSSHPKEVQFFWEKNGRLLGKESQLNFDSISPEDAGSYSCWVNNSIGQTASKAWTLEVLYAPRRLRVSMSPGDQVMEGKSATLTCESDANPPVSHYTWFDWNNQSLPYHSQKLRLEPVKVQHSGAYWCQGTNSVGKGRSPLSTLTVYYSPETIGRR


Assays:
[1] = target: T1, human CD22-ECD-His protein; experiment: SPR (Biacore), antibody captured on Protein A chip, CD22-ECD-His in solution
Experimental: Sample buffer and running buffer were HBS-EP+(10 mM HEPES, 150 mM NaCl, 3 mM EDTA, 0.05% surfactant P20) (GE Healthcare; BR-1006-69). The flow-through cell was set to 25° C. The sample block was set to 16° C. Both were pretreated with the running buffer. In each cycle, the antibody to be tested was first captured with a Protein A chip, then a single concentration of CD22 antigen protein was injected. The binding and dissociation process of the antibody and the antigen protein was recorded, and finally Glycine pH 1.5 (GE Healthcare; BR-1003-54) was used to complete chip regeneration. Binding was measured by injecting different concentrations of recombinant human CD22-ECD His protein in solution for 240 s with a flow rate of 30 μL/min. The concentration started from 200 nM (see the detailed results for the actual concentration in the test) and was diluted at 1:1, making a total of 5 concentrations. The dissociation phase was monitored for up to 600 s and was triggered by switching from sample solution to running buffer. The surface was regenerated by washing with a 10 mM of glycine solution (pH 1.5) for 30 s at a flow rate of 30 μL/min. Bulk refractive index difference was corrected by subtracting the response obtained from the goat anti-human Fc surface. Blank injection was also subtracted (=double reference). For calculation of apparent KD and other kinetic parameters, Langmuir 1:1 model was used.

[2] = target: T2, human CD22 domain5-7-His; experiment: ELISA, plate coated with human CD22 domain5-7-His

Kd [1] | koff [1] | kon [1] | binding result [2] | Binder
0.417 nM | 0.000113 s⁻¹ | 270000 M⁻¹ s⁻¹ | no binding | F1.257.3 (antibody, human IgG1, kappa, V domains shown, Chimeric IgG1 kappa) VH: QVQLQQSGPELARPGASVKLSCKASGYTFTSYGISWVKQRTGQDLEWIGEIYPKLGTTYYNEKFKDKATLTTDRSSSTAYMALRSLTSEDSAVYFCACPHYYATRGGDYWGQGTTLTVSS VL: EIVLTQSPATLSVTPGDSVTFSCRASQSISNHLHWYQQKSHESPRLLIRYASQSISGIPSRFSGSGSGTDFTLSLSSVETEDFGVYFCQQSHSWPYTFGGGTKLEIAR
0.458 nM | 0.00119 s⁻¹ | 2.6e+06 M⁻¹ s⁻¹ | no binding | F1.245.2 (antibody, human IgG1, kappa, V domains shown, Chimeric IgG1 kappa) VH: EVQLQQSGAELVKPGASVKLSCTGSGFNIKDYYIHWVKQRTEQGLEWMGRIDPEDGETEYAPKFQDEATITSDTSSNTAYLQLSSLTYEDTAVYYCAREAAGYFYRGSSYGYFDVWGTGTTVTVSS VL: DFQMTQTTSFLSASLGDRVTISCSASQDISNYLNWYQQKPDGTVKLLIYYTSSLHSGVPSRFSGSGSGTDYSLTISNLEPEDIATYYCQQYSMLPYTFGGGTKLEMER
